This is an account of results in article PMC2952221.

Some results are limits rather than exact numbers.

This assay has as its target 40 S ribosomal subunit, wild type (RDN+) (S. cerevisiae (endogenous in NOY908)) (UniProt P32905). Kind of assay: co-sedimentation.
Sequence of UniProt P32905 (P32905 whole entry, looked up, tested part not stated): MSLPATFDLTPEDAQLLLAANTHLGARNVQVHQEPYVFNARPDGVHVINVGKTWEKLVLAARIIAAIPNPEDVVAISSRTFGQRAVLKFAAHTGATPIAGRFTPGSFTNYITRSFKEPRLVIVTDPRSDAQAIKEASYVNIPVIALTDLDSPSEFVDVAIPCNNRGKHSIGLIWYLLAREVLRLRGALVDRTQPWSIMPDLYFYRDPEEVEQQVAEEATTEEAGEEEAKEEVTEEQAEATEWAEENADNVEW
“eIF2 (heterotrimeric factor) (from UniProt P20459 1-304; P09064 1-285; P32481 1-527) (complex)” yielded a percent of the factor loaded on free 40 S subunits of under 5%.

Substance “eIF3 (from UniProt P38249 1-964; Q04067 1-274) (complex)” yielded a percent of the factor loaded on free 40 S subunits of under 5%.

On to “eIF5 (from UniProt P38431 1-405) (natural protein)”, for which the percent of the factor loaded on free 40 S subunits is under 5%.
